US20250074980A1 (BRIGHAM AND WOMEN S HOSPITAL, published 2025)
Several values for one entry are separate records, joined by “and”; a condition that tells them apart may be missing. Equal values may be shown once.

T1: His-tagged CEACAM1 (human, UniProt P13688 35-428)
T1 construct: 45 kDa SPR analyte; also called CEACAM1-HIS; CEACAM1 analyte
T1 sequence: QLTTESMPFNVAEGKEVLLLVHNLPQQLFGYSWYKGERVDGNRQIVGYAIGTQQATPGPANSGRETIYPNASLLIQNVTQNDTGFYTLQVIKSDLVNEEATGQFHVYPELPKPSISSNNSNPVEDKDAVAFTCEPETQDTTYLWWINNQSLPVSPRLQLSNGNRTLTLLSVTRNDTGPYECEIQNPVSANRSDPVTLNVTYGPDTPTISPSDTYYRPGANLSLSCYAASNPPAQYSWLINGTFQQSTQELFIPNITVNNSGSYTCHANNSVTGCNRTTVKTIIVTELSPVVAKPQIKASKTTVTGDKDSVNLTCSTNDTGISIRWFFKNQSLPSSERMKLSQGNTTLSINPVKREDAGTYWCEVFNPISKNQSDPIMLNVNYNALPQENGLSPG

T2: CEACAM5 on transfected HeLa cells (human, UniProt P06731 35-685)
T2 construct: whole, on cells; also called HeLa-CEACAM5; HeLa C5
T2 sequence (looked up): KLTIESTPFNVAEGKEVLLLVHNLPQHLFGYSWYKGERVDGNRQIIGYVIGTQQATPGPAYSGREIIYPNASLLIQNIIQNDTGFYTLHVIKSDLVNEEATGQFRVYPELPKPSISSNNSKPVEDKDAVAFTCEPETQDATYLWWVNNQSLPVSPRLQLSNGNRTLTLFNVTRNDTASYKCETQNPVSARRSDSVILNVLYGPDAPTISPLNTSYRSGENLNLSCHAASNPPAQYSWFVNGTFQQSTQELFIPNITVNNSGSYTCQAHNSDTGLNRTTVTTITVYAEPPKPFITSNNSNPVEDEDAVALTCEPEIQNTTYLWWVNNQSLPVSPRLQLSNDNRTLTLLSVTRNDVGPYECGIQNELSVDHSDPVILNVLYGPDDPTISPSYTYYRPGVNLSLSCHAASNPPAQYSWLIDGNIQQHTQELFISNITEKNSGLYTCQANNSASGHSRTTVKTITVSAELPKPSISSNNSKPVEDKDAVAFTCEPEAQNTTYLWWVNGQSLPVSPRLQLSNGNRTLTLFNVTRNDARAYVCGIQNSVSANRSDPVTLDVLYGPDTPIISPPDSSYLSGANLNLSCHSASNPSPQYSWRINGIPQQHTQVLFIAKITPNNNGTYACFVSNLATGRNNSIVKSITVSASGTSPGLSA


Assays:
His-tagged CEACAM1 = molecular target: T1, His-tagged CEACAM1; assay: SPR multi-cycle, purified IgG captured
Experimental: Variants CP08H03/Vκ8 S29A and CP08H03/CP08F05 were further analyzed using multi-cycle kinetics analysis, using a Biacore T200 instrument running Biacore T200 Evaluation Software V3.0.1. The purified antibodies were diluted to a concentration of 1 μg/ml in HBS-P+. At the start of each cycle, each antibody was captured on the Protein A surface to give an RL of ˜100 RU. Following capture, the surface was allowed to stabilize. Kinetic data was obtained using a flow rate of 80 μl/min to minimize any potential mass transfer effects. Multiple repeats of the blank (no CEACAM1) and a repeat of a single concentration of the analyte were programmed into the kinetic run in order to check the stability of both the surface and analyte over the kinetic cycles. For kinetic analysis, a two-fold dilution range was selected from 100 to 1.56 nM CEACAM1. The association phase of CEACAM1 was monitored for 150 seconds and the dissociation phase was measured for 150 seconds. Regeneration of the Protein A surface was conducted using two injections of 10 mM glycine-HCL pH 1.5 at the end of each cycle.
The signal from the reference channel Fc1 was subtracted from that of Fc2, Fc3 and Fc4 to correct for differences in non-specific binding to a reference surface, and a global Rmax parameter was used in the 1-to-1 binding model. The relative Kp compared to Parent (VH1/Vκ8 S29A) was calculated by dividing the Kp of the affinity matured composite human antibody variants by that of the Parent on the same chip. The kinetic parameters measured for the interaction of CEACAM1 with affinity matured CEACAM1 antibody variants CP08H03/Vκ8 S29A and CP08H03/CP08F05 are shown in Table 23.

[1] = molecular target: T2, CEACAM5 on transfected HeLa cells; assay: flow cytometry, HeLa-CEACAM5 transfectants, % staining, stacked bars
From the text: FIG. 11 illustrates the binding selectivity of different affinity-matured CEACAM1 antibodies. […] HELA cells were transfected with vector alone (HeLa-Neo) or vectors expressing CEACAM1, CEACAM3, CEACAM5, or CEACAM6, respectively, and stained with the indicated antibodies. […] MOPC=mouse IgG1 control antibody. Mouse antibodies as positive control for transfected CEACAM isoforms: Col-1=CEACAM3 and CEACAM5 antibody. 9A6=CEACAM6 antibody. T84.1=CEACAM cross-reactive antibody and T84.66=CEACAM5 antibody. Only 2nd FITC=No primary antibody, only secondary FITC conjugated antibody. […] Data for affinity-matured antibodies 9B3_8H3/Vκ8 S29A, 8H3_9B3/CP08_E05, and 8H3_9C2/CPO08_F05, as well as data for CEACAM8 antibody 80H3 were omitted from the FIG. due to an unusually high background signal.

| Kd (His-tagged CEACAM1) | koff (His-tagged CEACAM1) | kon (His-tagged CEACAM1) | binding result [1] | relative KD to parent (His-tagged CEACAM1) | Binder |
| --- | --- | --- | --- | --- | --- |
| 95 nM and 100 nM | 0.045 s⁻¹ and 0.035 s⁻¹ | 470000 M⁻¹ s⁻¹ and 350000 M⁻¹ s⁻¹ | – | – | chimeric antibody VH0/Vκ0 (antibody, IgG4, V domains shown, IgG4 (S241P), kappa; also called VH0/Vκ0 (control); Chimeric VH0/Vκ0) VH: EVQLVESGGDLVKPGGSLKLACAASGFIFSSHGMSWVRQTPDKRLEWVATISSGGTYTYYPDSVKGRFTISRDNDKNTLYLQMNSLKSEDTAMYYCARHDFDYDAAWFAYWGQGTLVTVSS VL: QIVLTQSPALMSASPGVKVTMTCSANSSVSYMYWYRQKPRSSPKPWIYLTSNLASGVPARFSGSGSGTSYSLTISSMEAEDAATYYCQQWSSNPPTFGSGTKLEIK |
| 420 nM and 490 nM | 0.045 s⁻¹ and 0.06 s⁻¹ | 110000 M⁻¹ s⁻¹ and 120000 M⁻¹ s⁻¹ | no binding | 1 | VH1/Vκ8 S29A (antibody, IgG4, V domains shown, IgG4 (S241P), kappa; also called Parent; Parent (VH1/Vκ8 S29A)) VH: EVQLLESGGGLVQPGGSLRLSCAASGFIFSSHGMSWVRQAPGKGLEWVATISSGGTYTYYPDSVKGRFTISRDNSKNTLYLQMNSLKAEDTAMYYCARHDFDYDAAWFAYWGQGTLVTVSS VL: EIVLTQSPATLSLSPGERATLSCRANSAVSYMYWYQQKPGQAPRPWIYLTSNRATGVPARFSGSGSGTDYTLTISSLEPEDFAVYYCQQWSSNPPTFGQGTKLEIK |
| 99 nM | 0.009 s⁻¹ | 91000 M⁻¹ s⁻¹ | – | 4.3 | CP08H03/Vκ8 S29A (antibody, IgG4, V domains shown, IgG4 (S241P), kappa; also called CP08_H03/Parent VL; CP08_H03/Parental) VH: EVQLLESGGGLVQPGGSLRLSCAASGFIFSSHGMSWVRQAPGKGLEWVATISSGGTYTYYPDSVKGRFTISRDNSKNTLYLQMNSLKAEDTAMYYCARHDFDYFPYWFAHWGQGTLVTVSS VL: EIVLTQSPATLSLSPGERATLSCRANSAVSYMYWYQQKPGQAPRPWIYLTSNRATGVPARFSGSGSGTDYTLTISSLEPEDFAVYYCQQWSSNPPTFGQGTKLEIK |
| 58 nM | 0.0078 s⁻¹ | 130000 M⁻¹ s⁻¹ | no binding | 8.4 | CP08H03/CP08F05 (antibody, V domains shown, IgG4 (S241P), kappa) VH: EVQLLESGGGLVQPGGSLRLSCAASGFIFSSHGMSWVRQAPGKGLEWVATISSGGTYTYYPDSVKGRFTISRDNSKNTLYLQMNSLKAEDTAMYYCARHDFDYFPYWFAHWGQGTLVTVSS VL: EIVLTQSPATLSLSPGERATLSCRANSAVSYMYWYQQKPGQAPRPWIYLTSNRATGVPARFSGSGSGTDYTLTISSLEPEDFAVYYCQQWTSNPPTFGQGTKLEIK |
